Measurements as given in patent US20220042033A1, “COMPOSITION AND METHOD FOR CONFERRING AND/OR ENHANCING TOLERANCE AGAINST HERBICIDES BY USING VARIANTS OF PPO” (FarmHannong Co., Ltd., priority 2017, published 2022).
Changes are numbered by the printed parent chain. Names may count otherwise.

B1: A215C + Y422I: ApPPO1 (SEQ ID NO: 1) variant (protein)
chain: MPFTHLKPLNRLLGSPRARHPHVAPQAVSVTNTSTTRPGGRSSAPGIPGDAEYDVVIVGAGISGLTTAQALAKQYSDAVPRLLVTEARDCVGGNIITRRDGGYQWEEGPNSFQPSDAVLRAAVDAGVADRLVLGDPKAPRYVYWGGRLRATPSGPDVLTFDLLSLWGKLRAGLGAAGFKAPLPEREESVKEFVTRNLGEEVFQRLIEPFCSGVYCGDPAKLSMKAAFGKVYDLEKGGGSIVGGVLALMKARKQKPPEPRPADLPPKPKGQTVGSFDKGLVTLPSAIAEELGDRVVTGWKLESIDRSGDRFQLTYDTPQGRKKVSARSVALTVPAYTAASLLESRFPKLGKALSSIYYPPVASVALSYPETAILPERLGSDGHLAGFGQLHPRTQGVTTLGTIYASSLFPGRVPEGKVLLLSIFGGATNTRVATMPHGEIVSQVDKDLRKMLIRSDAESPHTVNVTVWPRAIPQFNVGHTDLIQEAKDDLASQGWQGLHLGGNYVAGVALGKCMEAGYKQAAELASHVKSLAT
modifications: Synthetic (Protoporphyrinogen IX oxidase (ApPPO1) of Auxenochlorella protothecoides)
B2: V213C + A215C + Y422I: ApPPO1 (SEQ ID NO: 1) variant (protein)
chain: B1 chain with V213C
modifications: Synthetic (Protoporphyrinogen IX oxidase (ApPPO1) of Auxenochlorella protothecoides)
B3: R140A + A215L + Y422M: ApPPO1 (SEQ ID NO: 1) variant (protein)
chain: B1 chain with R140A, C215L, I422M
modifications: Synthetic (Protoporphyrinogen IX oxidase (ApPPO1) of Auxenochlorella protothecoides)
B4: R140A + Y422T: ApPPO1 (SEQ ID NO: 1) variant (protein)
chain: B1 chain with R140A, C215A, I422T
modifications: Synthetic (Protoporphyrinogen IX oxidase (ApPPO1) of Auxenochlorella protothecoides)
B5: R140A + V213C + Y422M: ApPPO1 (SEQ ID NO: 1) variant (protein)
chain: B1 chain with R140A, V213C, C215A, I422M
modifications: Synthetic (Protoporphyrinogen IX oxidase (ApPPO1) of Auxenochlorella protothecoides)
B6: R140A + Y422I: ApPPO1 (SEQ ID NO: 1) variant (protein)
chain: B1 chain with R140A, C215A
modifications: Synthetic (Protoporphyrinogen IX oxidase (ApPPO1) of Auxenochlorella protothecoides)
B7: R140A + V213C + A215L + Y422M: ApPPO1 (SEQ ID NO: 1) variant (protein)
chain: B1 chain with R140A, V213C, C215L, I422M
modifications: Synthetic (Protoporphyrinogen IX oxidase (ApPPO1) of Auxenochlorella protothecoides)
B8: R140A + V213C + Y422I: ApPPO1 (SEQ ID NO: 1) variant (protein)
chain: B1 chain with R140A, V213C, C215A
modifications: Synthetic (Protoporphyrinogen IX oxidase (ApPPO1) of Auxenochlorella protothecoides)
B9: V213C + A215L + Y422M: ApPPO1 (SEQ ID NO: 1) variant (protein)
chain: B1 chain with V213C, C215L, I422M
modifications: Synthetic (Protoporphyrinogen IX oxidase (ApPPO1) of Auxenochlorella protothecoides)
B10: R140A + V213C + A215C + Y422I: ApPPO1 (SEQ ID NO: 1) variant (protein)
chain: B1 chain with R140A, V213C
modifications: Synthetic (Protoporphyrinogen IX oxidase (ApPPO1) of Auxenochlorella protothecoides)
B11: R140A + A215C + Y422I: ApPPO1 (SEQ ID NO: 1) variant (protein)
chain: B1 chain with R140A
modifications: Synthetic (Protoporphyrinogen IX oxidase (ApPPO1) of Auxenochlorella protothecoides)
B12: A215C + Y422T: ApPPO1 (SEQ ID NO: 1) variant (protein)
chain: B1 chain with I422T
modifications: Synthetic (Protoporphyrinogen IX oxidase (ApPPO1) of Auxenochlorella protothecoides)

These molecules were tested on ApPPO1 (assay: Herbicide tolerance test of ApPPO1 wild type and variants in PPO-deficient E. coli BT3(ΔPPO), growth on herbicide-containing LB agar). Conditions: relative to ApPPO1 WT, dark, up to 100 μM (FIGS. 7-12).
Type: cell-based, Auxenochlorella protothecoides
Description: Then, the extent of tolerance was evaluated.
For B1, the “Herbicide tolerance, flumioxazin” value was “+++++ (more than 10,000 fold higher tolerance)”. With B2 the “Herbicide tolerance, flumioxazin” value was “+++++ (more than 10,000 fold higher tolerance)”. B3 was tested, and the “Herbicide tolerance, flumioxazin” value was “+++++ (more than 10,000 fold higher tolerance)”. B4 was tested, and the “Herbicide tolerance, flumioxazin” value was “++++ (1,000-9,999 fold higher tolerance)”. With B5 the “Herbicide tolerance, flumioxazin” value was “+++++ (more than 10,000 fold higher tolerance)”. For B6, the “Herbicide tolerance, flumioxazin” value was “+++++ (more than 10,000 fold higher tolerance)”. In the case of B7, the “Herbicide tolerance, flumioxazin” value is reported as “+++++ (more than 10,000 fold higher tolerance)”. B8 was tested, and the “Herbicide tolerance, flumioxazin” value was “+++++ (more than 10,000 fold higher tolerance)”. For B9, the “Herbicide tolerance, flumioxazin” value was “+++++ (more than 10,000 fold higher tolerance)”. With B10 the “Herbicide tolerance, flumioxazin” value was “+++++ (more than 10,000 fold higher tolerance)”. In the case of B11, the “Herbicide tolerance, flumioxazin” value is reported as “+++++ (more than 10,000 fold higher tolerance)”. For B12, the “Herbicide tolerance, flumioxazin” value was “+++ (100-999 fold higher tolerance)”.

Same assay, conditions: relative to ApPPO1 WT, dark, up to 200 μM (FIGS. 7-12)
B1 was tested, and the “Herbicide tolerance, tiafenacil” value was “+++++ (more than 10,000 fold higher tolerance)”. In the case of B2, the “Herbicide tolerance, tiafenacil” value is reported as “+++++ (more than 10,000 fold higher tolerance)”. B3 was tested, and the “Herbicide tolerance, tiafenacil” value was “+++++ (more than 10,000 fold higher tolerance)”. In the case of B4, the “Herbicide tolerance, tiafenacil” value is reported as “++++ (1,000-9,999 fold higher tolerance)”. In the case of B5, the “Herbicide tolerance, tiafenacil” value is reported as “+++++ (more than 10,000 fold higher tolerance)”. B6 was tested, and the “Herbicide tolerance, tiafenacil” value was “+++++ (more than 10,000 fold higher tolerance)”. For B7, the “Herbicide tolerance, tiafenacil” value was “+++++ (more than 10,000 fold higher tolerance)”. For B8, the “Herbicide tolerance, tiafenacil” value was “+++++ (more than 10,000 fold higher tolerance)”. In the case of B9, the “Herbicide tolerance, tiafenacil” value is reported as “+++++ (more than 10,000 fold higher tolerance)”. For B10, the “Herbicide tolerance, tiafenacil” value was “+++++ (more than 10,000 fold higher tolerance)”. For B11, the “Herbicide tolerance, tiafenacil” value was “+++++ (more than 10,000 fold higher tolerance)”. With B12 the “Herbicide tolerance, tiafenacil” value was “+++ (100-999 fold higher tolerance)”.

Same assay, conditions: relative to ApPPO1 WT, dark, up to 400 μM (FIGS. 7-12)
In the case of B1, the “Herbicide tolerance, sulfentrazone” value is reported as “++++ (1,000-9,999 fold higher tolerance)”. For B2, the “Herbicide tolerance, sulfentrazone” value was “++++ (1,000-9,999 fold higher tolerance)”. For B3, the “Herbicide tolerance, sulfentrazone” value was “++++ (1,000-9,999 fold higher tolerance)”. In the case of B4, the “Herbicide tolerance, sulfentrazone” value is reported as “+++ (100-999 fold higher tolerance)”. B5 was tested, and the “Herbicide tolerance, sulfentrazone” value was “++++ (1,000-9,999 fold higher tolerance)”. With B6 the “Herbicide tolerance, sulfentrazone” value was “++++ (1,000-9,999 fold higher tolerance)”. With B7 the “Herbicide tolerance, sulfentrazone” value was “++++ (1,000-9,999 fold higher tolerance)”. For B8, the “Herbicide tolerance, sulfentrazone” value was “++++ (1,000-9,999 fold higher tolerance)”. For B9, the “Herbicide tolerance, sulfentrazone” value was “++++ (1,000-9,999 fold higher tolerance)”. For B10, the “Herbicide tolerance, sulfentrazone” value was “++++ (1,000-9,999 fold higher tolerance)”. In the case of B11, the “Herbicide tolerance, sulfentrazone” value is reported as “++++ (1,000-9,999 fold higher tolerance)”. B12 was tested, and the “Herbicide tolerance, sulfentrazone” value was “+++ (100-999 fold higher tolerance)”.
